According to PMC10960022, “An ARF gene mutation creates flint kernel architecture in dent maize”:

Experiments:
[1] = biological target: T1, ARFTF17 (Zea mays (B73?)) (UniProt D9HNU4); assay: EMSA; conditions: 20 mM Tris-HCl pH 7.9, 40 mM KCl, 2 mM MgCl2, 0.2 mM DTT, 5% glycerol, 0.04 mg/mL BSA, 1 ug salmon sperm DNA in 20 uL, room temperature 30 min; 0.05 pmol …
T1 sequence: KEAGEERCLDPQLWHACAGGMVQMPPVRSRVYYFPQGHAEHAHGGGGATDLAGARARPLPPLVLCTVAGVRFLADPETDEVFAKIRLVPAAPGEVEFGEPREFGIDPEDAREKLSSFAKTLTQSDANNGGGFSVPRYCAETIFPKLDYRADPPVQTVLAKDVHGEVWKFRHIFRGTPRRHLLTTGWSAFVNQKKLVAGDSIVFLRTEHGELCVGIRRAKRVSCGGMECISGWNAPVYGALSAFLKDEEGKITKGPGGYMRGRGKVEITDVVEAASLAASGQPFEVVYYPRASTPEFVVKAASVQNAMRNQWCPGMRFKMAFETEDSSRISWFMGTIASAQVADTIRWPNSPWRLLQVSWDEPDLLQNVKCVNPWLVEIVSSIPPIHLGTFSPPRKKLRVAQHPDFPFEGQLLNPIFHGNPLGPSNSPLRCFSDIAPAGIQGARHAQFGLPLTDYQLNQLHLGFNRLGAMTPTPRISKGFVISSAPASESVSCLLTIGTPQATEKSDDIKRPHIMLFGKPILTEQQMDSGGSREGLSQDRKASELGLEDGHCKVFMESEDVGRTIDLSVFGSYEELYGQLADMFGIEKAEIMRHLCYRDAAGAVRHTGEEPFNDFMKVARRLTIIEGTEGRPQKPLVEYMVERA

ARFTF17 = biological target: T2, ARFTF17 (Zea mays, UniProt D9HNU4 2-644); assay: EMSA; 20 mM Tris-HCl pH 7.9, 40 mM KCl, 2 mM MgCl2, 0.2 mM DTT, 5% glycerol, 0.04 mg/mL BSA, 1 ug salmon sperm DNA in 20 uL, room temperature 30 min; 0.05 pmol probe, 100 ng protein; native 4% PAGE at 4 C; conditions: protein: recombinant; tags: His (pET30a); chain copies: 2; blunt
T2 sequence: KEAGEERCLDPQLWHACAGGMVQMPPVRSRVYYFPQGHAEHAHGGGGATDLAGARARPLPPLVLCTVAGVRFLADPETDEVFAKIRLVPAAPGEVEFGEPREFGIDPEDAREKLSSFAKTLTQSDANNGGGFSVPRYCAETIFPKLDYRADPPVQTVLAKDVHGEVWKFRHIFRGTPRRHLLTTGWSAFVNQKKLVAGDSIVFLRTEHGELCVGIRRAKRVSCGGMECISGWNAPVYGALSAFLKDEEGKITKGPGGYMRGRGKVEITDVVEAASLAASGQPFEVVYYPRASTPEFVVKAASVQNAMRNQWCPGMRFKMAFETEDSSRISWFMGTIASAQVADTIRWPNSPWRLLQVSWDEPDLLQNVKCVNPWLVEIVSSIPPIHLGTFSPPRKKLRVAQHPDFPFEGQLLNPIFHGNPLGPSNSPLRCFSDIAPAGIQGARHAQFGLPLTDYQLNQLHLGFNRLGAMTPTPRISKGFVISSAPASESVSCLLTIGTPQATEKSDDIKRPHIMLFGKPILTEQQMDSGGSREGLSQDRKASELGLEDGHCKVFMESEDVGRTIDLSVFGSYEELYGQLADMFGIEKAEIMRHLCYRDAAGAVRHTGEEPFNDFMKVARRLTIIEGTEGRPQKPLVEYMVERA

AATGCACAATCAAATAAATACTCAACATGATGCATATTTCTATTTATATATTTTTATAGTAATTGTTTAATCCTTTTGGTTAAATAACATGCTTCGAAATATGCCATACAACAATTTTCAGTTTTGAAGAAAT (double strand) [PIN1-P]
binding [1]: no binding

B1: P3(2x) (dsDNA)
DNA 1: AAGGGAGACAACTTGTCTCCCAAAGGGAGACAACTTGTCTCCCAAAGGGAGACAACTTGTCTCCCA
DNA 2: TGGGAGACAAGTTGTCTCCCTTTGGGAGACAAGTTGTCTCCCTTTGGGAGACAAGTTGTCTCCCTT
binding result (ARFTF17): no binding
